pKd: −log10 of the molar value.
Target: yAsf1*^532 (full-length yeast Asf1, residues 1 to 279, labeled at position -1 with Alexa Fluor 532) (S. cerevisiae) (UniProt P32447)
Experiment: other fluorescence titration; fluorescence quenching: unlabeled histones titrated into 1 nM yAsf1*^532; 20°C; 150 mM KCl, 2 mM MgCl2, 10 mM Tris-HCl pH 7.5, 1% glycerol, 0.05% Brij-35, 0.5 mM TCEP; ligand-depleted binding model

H3/H4^∆94 (Xenopus laevis, H3 C110A and H4 T71C Δ94-102) (from UniProt P84233 1-136; P62799 1-94) (complex)
pKd: 9.40

Source: PMC3439350
